Test results as given in publication PMC4951691.

How the values were obtained:
[1] = molecular target: Cryptococcus neoformans Golgi Reassembly and Stacking Protein (CnGRASP) (Cryptococcus neoformans); experiment: dynamic light scattering; Nano-ZS, 20 °C, 25 mM Hepes/NaOH, 150 mM NaCl, 1 mM beta-mercaptoethanol, 10% glycerol, pH 7.4; mass worked out from the Rh of 3.9 nm
[2] = molecular target: Cryptococcus neoformans Golgi Reassembly and Stacking Protein (CnGRASP) (Cryptococcus neoformans); experiment: SEC; Superdex 200 (HR 10/30), Akta purifier; hydrodynamic radius from the partition coefficient against standard proteins (calibration kit LMW/HMW); CHAPS left out of the protein preparation
[3] = molecular target: Cryptococcus neoformans Golgi Reassembly and Stacking Protein (CnGRASP) (Cryptococcus neoformans); experiment: SEC + other: zone sedimentation in a sucrose gradient; Siegel and Monte model: Rh from SEC combined with the sedimentation coefficient (about 4.2 S) from a 10 to 35% sucrose gradient in 25 mM Hepes/NaOH, 150 mM NaCl, pH 7.4; CnGRASP less than 1 mg/mL; 100,000 g for 4 h at 4 °C

stoichiometry N [1]: 2
stoichiometry N [2]: 2
stoichiometry N [3]: 2
Substance: Cryptococcus neoformans Golgi Reassembly and Stacking Protein (CnGRASP) (natural protein)
